Publication PMC7948508, “Comparison of human poly-N-acetyl-lactosamine synthase structure with GT-A fold glycosyltransferases supports a modular assembly of catalytic subsites” (The Journal of Biological Chemistry, 2020)

Target: the molecule itself
Assay: SEC-MALS; 20 μl at 1 mg/ml on Superdex 75; 25 mM HEPES (pH 7.4), 150 mM NaCl, 0.02% NaN3

B1: catalytic domain of human β-1,3-N-acetylglucosaminyltransferase 2 (B3GNT2, residues 34–397) (domain or fragment, UniProt Q9NY97 34-397, looked up)
chain: EKNGKGEVIIPKEKFWKISTPPEAYWNREQEKLNRQYNPILSMLTNQTGEAGRLSNISHLNYCEPDLRVTSVVTGFNNLPDRFKDFLLYLRCRNYSLLIDQPDKCAKKPFLLLAIKSLTPHFARRQAIRESWGQESNAGNQTVVRVFLLGQTPPEDNHPDLSDMLKFESEKHQDILMWNYRDTFFNLSLKEVLFLRWVSTSCPDTEFVFKGDDDVFVNTHHILNYLNSLSKTKAKDLFIGDVIHNAGPHRDKKLKYYIPEVVYSGLYPPYAGGGGFLYSGHLALRLYHITDQVHLYPIDDVYTGMCLQKLGLVPEKHKGFRTFDIEEKNKNNICSYVDLMLVHSRKPQEMIDIWSQLQSAHLKC
modifications: N-glycans cut by EndoF1, leaving only a single GlcNAc residue attached to each Asn side chain (sequons N79, N89, N127, N173, N219); at Asn219 a Manβ1,4-GlcNAcβ1,4-GlcNAcβ- glycan is seen in the crystal structure
notes: also called B3GNT2 cat domain; B3GNT2 catalytic domain; source: HEK293S (GnTI-) cells, transient transfection, secreted; purified (Ni2+-NTA, TEV protease + EndoF1 cleavage, second Ni2+-NTA, Superdex 75); not shown: 8xHis, N-terminal, cleaved; AviTag, N-terminal, cleaved; superfolder GFP, N-terminal, cleaved
With B1 the “stoichiometry N” value was 2.
